pKd: −log10 of the molar value.
Tests used:
[1] = target: West Nile virus strain USA99b (strain 385-99), whole virus (West Nile virus strain 385-99 (USA99b)); assay: ELISA on irradiated WNV; antibody diluted 1:5
[2] = target: West Nile virus strain USA99b (strain 385-99), whole virus (West Nile virus strain 385-99 (USA99b)); assay: ELISA on irradiated WNV; antibody diluted 1:25
[3] = target: West Nile virus strain USA99b (strain 385-99), whole virus (West Nile virus strain 385-99 (USA99b)); assay: ELISA on irradiated WNV; antibody diluted 1:125
[4] = target: West Nile virus strain USA99b (strain 385-99), whole virus (West Nile virus strain 385-99 (USA99b)); assay: ELISA on irradiated WNV; antibody at 20.000 µg/ml
[5] = target: West Nile virus strain USA99b (strain 385-99), whole virus (West Nile virus strain 385-99 (USA99b)); assay: SPR (BIAcore3000), WNV captured via immobilized CR4283, IgG injected, bivalent analyte model, average of duplicates
[6] = target: WNV-like particles with E protein mutation A365V (West Nile virus strain 382-99) (UniProt Q9Q6P4)

Substance	OD 492 nm [1] [OD]	OD 492 nm [2] [OD]	OD 492 nm [3] [OD]	OD 492 nm [4] [OD]	pKd [5]	fold binding against wild-type VLP [6] [fold]
anti-rabies virus antibody (negative control)	0.062	0.056	0.046	0.051	–	–
WNV-E protein specific murine antibody 7H2	2.09	2.12	2.13	–	9.49	2
